Results on three molecules are retold here after patent publication US11733236B2, “Flattop (fltp) is a novel biomarker for beta cell maturation” (Helmholtz Zentrum München—Deutsches Forschungszentrum Für …, priority 2014, dated 2023).

Series [1] concerns β cells. Description: multiple low-dose streptozotocin (STZ) model. Format: in vivo, mouse. As to conditions: Fltp ZV/+ and Fltp ZV/ZV mice, 40 mg/kg i.p. daily for 5 days, vs vehicle, up to day 16. How it is done:
[…] Blood glucose level was measured every 2 days using Freestyle Lite glucometer (Abbot Laboratory). On day 16 after the first STZ injection, GTT was carried out as described and mice were euthanized.
To further test the requirement of PCP and Fltp in the context of β cell survival and regeneration, a multiple low-dose streptozotocin (STZ) model was employed (Kolb 1987). Streptozotocin is a naturally occurring chemical that is particularly toxic to β cells. For this purpose STZ was injected on five consecutive days and blood glucose regulation was measured every 2nd day thereafter in Fltp^ZV/+ and Fltp^ZV/ZV cohorts (FIG. 5C). […] Thus, loss of Fltp and planar polarization in β cells increases the vulnerability to STZ.

The test system of series [2] is Fltp reporter expression in β cells of cultured islets. Description: Fltp reporter expression in isolated islets cultured in absence or presence of Wnt ligands. Format: cell-based, mouse. As to conditions: islets of Fltp-T2A-iCre x mTmG mice cultured in absence or presence of ligand. How it is done:
For lineage tracing studies, islet from eight-week-old Fltp^T2A-iCre-mTmG were isolated as described above. For FACS analysis islet were incubate with 0.25% Trypsin-EDTA (Invitrogen) to obtain single cell suspensions and intarcellular staining for Nkx6.1 was performed. For live imaging experiment isolated islets from Fltp^T2A-iCre-mTmG were cultured in matrigel and imaging was performed using Leica Confocal SP5 microscope.
Islets of these crossings were isolated and cultured in vitro. To establish the culture conditions, it is first tested if β cells depend on Wnt/PCP signaling to maintain Ftp reporter expression. Therefore, islets were cultured in absence or presence of ligands of the canonical Wnt/β-catenin (Wnt3a) and non-canonical Wnt/PCP pathway (Wnt5a). […] Using these culture conditions in combination with live single cell imaging will allow us to follow new born Fltp-Cre expressing mT and mG expressing cells over a time-course of two to four days.

For series [3], the system named is EndoC-β H1 human β-cells. Description: NKX6.1 maturation marker expression in EndoC-β H1 cells cultured in Matrigel (3D), WNT5a stimulation, LSM immunofluorescence. Format: cell-based. How it is done:
(§1) EndoC-β H1 human β-cell line were cultured in adherence (2D culture) as described previously (Ravassard et al. (2011)). For 3D matrigel based cultures EndoC-β H1 were cultured in Matrigel Matrix Growth Factor Reduced (BD Bioscience, Germany) diluted 1:2 in their respective medium. For analysis of WNT5a induced β-cell maturation, samples were stimulated with 400 ng/ml of WNT5a (R&D systems, Germany) for 12 h or 3 days.
Staining of EndoC-β H1 cells was performed as follows: cells were fixed for 10 min in 4% PFA at 37° C. washed 3× with PBS containing 0.2% Tween and 0.3% BSA (washing buffer) at RT, and permeabilized for 30 min on a shaker at RT. Subsequently the cells were washed again 3× with washing buffer at RT, blocked for 1 h at RT in blocking buffer (PBS including 0.02% Tween, 10% FCS, 0.2% BSA, 3% serum). Then the primary antibody was added in blocking solution and incubated over night at 4° C. The cells were washed 3× in washing buffer, incubated with the secondary antibody for 2 h at RT, washed 3× in washing buffer and embedded in Elvanol for subsequent imaging. Imaging was performed with a Leica SP5 confocal microscope according to the manufacturers guidelines. The 63× glycerol objective was used.

Series [4] deals with isolated islets of P5 WT animals. Put plainly: Ucn3 maturation marker staining in isolated, re-aggregated islets of P5 WT animals, Wnt5a stimulation, LSM. Type of series: cell-based, mouse. As for the experimental part: as §1
Murine pancreatic islets of Langerhans were isolated from 5 day old mice. After decapitation of the animals, the pancreas was dissected and supplemented with collagenase P (1 mg/ml) in HBSS (Hanks balanced salt solution) including 10% BSA (G-solution) and incubated for 15 min at 37° C. The pancreas was washed 2× in G-solution at RT and the islets were picked under the stereomicroscope (Leica). The islets were incubated in RPMI 1640 plus 5% FCS (fetal calf serum) and 1% P/S (penicillin and streptomycin). Afterwards the islets were trypsinized with 0.05% Trypsin […] at 37° C., washed twice with PBS plus 0.3% BSA and then seeded in iBidi 8 well chambers. For immunohistochemistry the protocol mentioned above was used. Fluorescent intensity was calculated by the Leica LAS-AF (Version 2.7.3.9723) software and the graphs were plotted with Excel.

In the case of `CN(N=O)C(=O)N[C@H]1C(O)O[C@H](CO)[C@@H](O)[C@@H]1O` (mixture of isomers) [STZ, Streptozotocin], the “loss of β cells (immunohistochemistry on pancreatic sections)” value in series [1] is recorded as “gradual loss of β cells”.

B1: Wnt3a: ligand of the canonical Wnt/β-catenin pathway (protein, UniProt P56704 19-352, looked up)
Protein Wnt-3a: SYPIWWSLAVGPQYSSLGSQPILCASIPGLVPKQLRFCRNYVEIMPSVAEGIKIGIQECQHQFRGRRWNCTTVHDSLAIFGPVLDKATRESAFVHAIASAGVAFAVTRSCAEGTAAICGCSSRHQGSPGKGWKWGGCSEDIEFGGMVSREFADARENRPDARSAMNRHNNEAGRQAIASHMHLKCKCHGLSGSCEVKTCWWSQPDFRAIGDFLKDKYDSASEMVVEKHRESRGWVETLRPRYTYFKVPTERDLVYYEASPNFCEPNPETGSFGTRDRTCNVSSHGIDGCDLLCCGRGHNARAERRREKCRCVFHWCCYVSCQECTRVYDVHTCK
In the case of B1, in series [2], the “maintenance of Fltp reporter gene expression” value is reported as “not canonical Wnt signaling”.

B2: Wnt5a: noncanonical Wnt ligand of the Wnt/PCP pathway, obtained from R&D systems (protein, UniProt P41221 62-380, looked up)
Protein Wnt-5a: IIGAQPLCSQLAGLSQGQKKLCHLYQDHMQYIGEGAKTGIKECQYQFRHRRWNCSTVDNTSVFGRVMQIGSRETAFTYAVSAAGVVNAMSRACREGELSTCGCSRAARPKDLPRDWLWGGCGDNIDYGYRFAKEFVDARERERIHAKGSYESARILMNLHNNEAGRRTVYNLADVACKCHGVSGSCSLKTCWLQLADFRKVGDALKEKYDSAAAMRLNSRGKLVQVNSRFNSPTTQDLVYIDPSPDYCVRNESTGSLGTQGRLCNKTSEGMDGCELMCCGRGYDQFKTVQTERCHCKFHWCCYVKCKKCTEIVDQFVCK
B2: the “expression of NKX6.1 (fluorescent intensity, NKX6.1 high vs low cells)” value in series [3] (EndoC-β H1 in Matrigel (3D) treated with WNT5a vs 3D without WNT5a, 400 ng/ml) is given as “higher expression of NKX6.1”. The “expression of maturation markers” value in series [3] (EndoC-β H1 stimulated with Wnt5a) and in series [4] (neonatal isolated islets stimulated with Wnt5a) was “increased expression of maturation markers” in each case. Besides, the “amount of maturation marker Ucn3 protein” value in series [4] (islets of P5 WT animals treated with Wnt5a for 12 h vs non-treated, 400 ng/ml, n=3) is “higher amount of maturation marker Ucn3 protein”. Besides, the “Ucn3 maturation marker staining” value in series [4] (islets of P5 WT animals treated with Wnt5a for 3 days vs untreated, 400 ng/ml, n=3) was “significant increase in Ucn3 maturation marker staining”. For the same molecule, the “maintenance of Fltp reporter gene expression” value in series [2] is listed as “Fltp-reporter gene expression indeed depend on Wnt/PCP”.
